One block for each binder: values may come before it.
Assays:
[1] = molecular target: recombinant human IL-17 (Peprotech #200-17) (human, UniProt Q16552 20-155); experiment: cell-based or functional assay
[2] = molecular target: T1, Recombinant human TWEAK (R&D Systems; Cat. #1090-TW/CF) (human, UniProt O43508 97-249, limits assumed); experiment: cell-based or functional assay
T1 sequence: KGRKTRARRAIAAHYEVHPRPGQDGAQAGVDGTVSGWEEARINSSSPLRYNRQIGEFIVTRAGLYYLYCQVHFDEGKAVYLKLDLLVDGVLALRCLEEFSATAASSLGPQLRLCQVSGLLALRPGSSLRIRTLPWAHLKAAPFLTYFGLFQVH

IL-17 F/F = molecular target: T2, IL-17 F/F (human, UniProt Q96PD4 31-163); experiment: SPR (BIAcore T100), antibody captured by anti-human F(ab')2, IL17 as analyte, 25 C
T2 construct: read as the homodimer of IL17F
T2 sequence: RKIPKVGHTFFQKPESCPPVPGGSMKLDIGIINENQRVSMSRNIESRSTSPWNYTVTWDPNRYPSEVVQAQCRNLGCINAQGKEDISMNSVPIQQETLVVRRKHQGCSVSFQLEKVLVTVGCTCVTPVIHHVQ
Protocol: (§1) Around 12000 resonance units (RU) of the capturing system (10 μg/ml goat anti human F(ab′)2; Order Code: 28958325; GE Healthcare Bio-Sciences AB, Schweden) were coupled on a CMS chip at pH 5.0 by using an amine coupling kit supplied by the GE Healthcare. The sample and system buffer was PBS-T (10 mM phosphate buffered saline including 0.05% Tween20) pH 7.4. The bispecific antibody was captured by injecting a 50 nM solution for 1 min at a flow of 10 μl/min. Association was measured by injection human IL17 in various concentrations in solution for 3 min at a flow of 30 μl/min starting with 50 nM in 1:1 dilutions. The dissociation phase was monitored for up to 5 min and triggered by switching from the sample solution to running buffer. The surface was regenerated by two times 60 sec. washing with a glycin pH 2.1 solution at a flow rate of 30 μl/min. Bulk refractive index differences were corrected by subtracting the response obtained from a goat anti human F(ab′)2 surface. Blank injections are also subtracted (=double referencing). For calculation of apparent KD and other kinetic parameters the Langmuir 1:1 model was used.

IL-17 A/F = molecular target: T3, IL-17 A/F (human, UniProt Q16552 24-155; Q96PD4 31-163); experiment: SPR (BIAcore T100), antibody captured by anti-human F(ab')2, IL17 as analyte, 25 C, 1:1 model
T3 construct: read as the heterodimer of IL17A and IL17F
Protocol: as §1

human IL17A/A = human IL17A/A (human, UniProt Q16552 24-155, limits assumed); experiment: SPR (BIAcore T100), antibody captured by anti-human F(ab')2, IL17 as analyte, 25 C, apparent KD, 1:1 model
Protocol: as §1

human Tweak-Fc [3] = molecular target: T4, human Tweak-Fc (human, UniProt O43508 106-249, limits assumed); experiment: SPR (BIAcore T100), TWEAK ligand (Tweak-Fc) amine-coupled on C1 chip, bispecific antibody as analyte, 25 C
T4 construct: not shown: Fc part
T4 sequence: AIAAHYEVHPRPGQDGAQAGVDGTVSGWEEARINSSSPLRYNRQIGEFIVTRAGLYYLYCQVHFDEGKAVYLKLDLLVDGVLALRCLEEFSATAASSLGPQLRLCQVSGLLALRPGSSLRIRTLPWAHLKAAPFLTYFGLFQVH
Excerpt: (§2) The BIAcore® system is well established for the study of molecule interactions. SPR-technology is based on the measurement of the refractive index close to the surface of a gold coated biosensor chip. Changes in the refractive index indicate mass changes on the surface caused by the interaction of immobilized ligand with analyte injected in solution. The mass increases if molecules bind immobilized ligands on the surface, and vice versa, the mass decreases in case of dissociation of the analyte from the immobilized ligand (reflecting complex dissociation). SPR allows a continuous real-time monitoring of ligand/analyte binding and thus the determination of the association rate constant (ka), the dissociation rate constant (kd), and of the equilibrium constant (KD).
(§3) Around 100 resonance units (RU) of TWEAK was immobilized on the C1 chip surface at pH 5.0 using an amine coupling kit supplied by the GE Healthcare. The sample and system buffer was PBS-T (10 mM phosphate buffered saline including 0.05% Tween20) pH 7.4. Association was measured by injection the bispecific antibody in various concentrations in solution for 3 min at a flow of 30 μl/min starting with 50 nM in 1:1 dilutions. The dissociation phase was monitored for up to 10 min and triggered by switching from the sample solution to running buffer. […]

human Tweak-Fc [4] = molecular target: T4, human Tweak-Fc; experiment: SPR (BIAcore T100), TWEAK ligand (Tweak-Fc) amine-coupled on C1 chip, bispecific antibody as analyte, 25 C, 1:1 model
Excerpt: as §2
Around 100 resonance units (RU) of TWEAK was immobilized on the C1 chip surface at pH 5.0 using an amine coupling kit supplied by the GE Healthcare. The sample and system buffer was PBS-T (10 mM phosphate buffered saline including 0.05% Tween20) pH 7.4. Association was measured by injection the bispecific antibody in various concentrations in solution for 3 min at a flow of 30 μl/min starting with 50 nM in 1:1 dilutions. The dissociation phase was monitored for up to 10 min and triggered by switching from the sample solution to running buffer. The surface was regenerated by three times 30 sec. washing with a 3M MgCl2 solution at a flow rate of 30 μl/min. Bulk refractive index differences were corrected by subtracting the response obtained from a blank-coupled surface. Blank injections are also subtracted (=double referencing). For calculation of apparent KD and other kinetic parameters the Langmuir 1:1 model was used.

human Tweak-Fc [5] = molecular target: T4, human Tweak-Fc; experiment: SPR (BIAcore T100), TWEAK ligand (Tweak-Fc) amine-coupled on C1 chip, bispecific antibody as analyte, 25 C, apparent KD, 1:1 model
Excerpt: as §2, §3

recombinant human IL-17 (Peprotech #200-17), sequence (Q16552 20-155 limits assumed): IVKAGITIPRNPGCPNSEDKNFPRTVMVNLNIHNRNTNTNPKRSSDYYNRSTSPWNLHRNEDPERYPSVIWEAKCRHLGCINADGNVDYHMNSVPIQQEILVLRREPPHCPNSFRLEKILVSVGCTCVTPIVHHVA
human IL17A/A, sequence (Q16552 24-155 limits assumed): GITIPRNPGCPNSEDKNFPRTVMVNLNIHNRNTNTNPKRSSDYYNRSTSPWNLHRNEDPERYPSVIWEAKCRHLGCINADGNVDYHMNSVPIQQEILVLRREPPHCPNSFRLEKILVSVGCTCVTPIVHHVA
T3 sequence (Q16552 24-155 limits assumed, one chain of several): as the sequence (Q16552 24-155 limits assumed) above

- IL-6 IC50 [nM] per valency (IL-17 induced cytokine production, HFLS-RA) [1]: 1.72 nM
- IL-8 IC50 [nM] per valency (IL-17 induced cytokine production, HFLS-RA) [1]: 1.1 nM
- IC50 (nM) per valency, Tweak induced HFLS proliferation (CellTiter Glo) [2]: 0.157 nM
- Kd (IL-17 A/F): 0.27 nM
- Kd (human IL17A/A): 0.15 nM
- T½ (human Tweak-Fc [3]): 3.55 h
- koff (human Tweak-Fc [4]): 5.42e-05 s⁻¹
- kon (human Tweak-Fc [4]): 426000 M⁻¹ s⁻¹
- Kd (human Tweak-Fc [5]): 0.127 nM
B1: Bispecific <Tweak-IL-17> #4 antibody (bispecific antibody, human IgG1, kappa)
heavy 1: not shown
heavy 2: not shown
light: DIVMTQSPLSLPVTPGEPASISCRSSQSLVHSNGDTYFHWYLQKPGQSPQLLIYKVSNRFSGVPDRFSGSGSGTDFTLKISRVEAEDVGVYYCSQTTHAPFTFGQGTKLEIKRTVAAPSVFIFPPSDEQLKSGTASVVCLLNNFYPREAKVQWKVDNALQSGNSQESVTEQDSKDSTYSLSSTLTLSKADYEKHKVYACEVTHQGLSSPVTKSFNRGEC
notes: Bivalent one-armed scFab format (WO 2011/117330), IgG1 knobs-into-holes
- binding result (IL-17 F/F): no binding (tested: IL17 injected starting with 50 nM)

- IL-6 IC50 [nM] per valency (IL-17 induced cytokine production, HFLS-RA) [1]: 1.38 nM
- IL-8 IC50 [nM] per valency (IL-17 induced cytokine production, HFLS-RA) [1]: 0.9 nM
- IC50 (nM) per valency, Tweak induced HFLS proliferation (CellTiter Glo) [2]: 0.08 nM
- Kd (human IL17A/A): < 0.2 nM
- T½ (human Tweak-Fc [3]): 3.63 h
- koff (human Tweak-Fc [4]): 5.31e-05 s⁻¹
- kon (human Tweak-Fc [4]): 810000 M⁻¹ s⁻¹
- Kd (human Tweak-Fc [5]): 0.0656 nM
B2: Bispecific <Tweak-IL-17> #20 antibody (bispecific antibody, human IgG4 S228P, kappa)
heavy 1: EVQLVESGGGLVQPGGSLRLSCAASGFSLDSYGVHWVRQATGKGLEWVSVIWSDGTTTYNSALKSRFTISRENAKNSLYLQMNSLRAGDTAVYYCARDTHYRLYYYAMDYWGQGTTVTVSSASTKGPSVFPLAPCSRSTSESTAALGCLVKDYFPEPVTVSWNSGALTSGVHTFPAVLQSSGLYSLSSVVTVPSSSLGTKTYTCNVDHKPSNTKVDKRVESKYGPPCPPCPAPEFEGGPSVFLFPPKPKDTLMISRTPEVTCVVVDVSQEDPEVQFNWYVDGVEVHNAKTKPREEQFNSTYRVVSVLTVLHQDWLNGKEYKCKVSNKGLPSSIEKTISKAKGQPREPQVCTLPPSQEEMTKNQVSLSCAVKGFYPSDIAVEWESNGQPENNYKTTPPVLDSDGSFFLVSRLTVDKSRWQEGNVFSCSVMHEALHNHYTQKSLSLSLGK
heavy 2: not shown
light: B1 light
notes: Bivalent one-armed scFab format, IgG4 S228P/L235E knobs-into-holes
- binding result (IL-17 F/F): no binding (tested: IL17 injected starting with 50 nM)
